Reference: patent US20020193568
Where two headings read alike, the source gives them in different places.

Key:
[1] = molecular target: LacI Pro320Ala Pro320Ala (Escherichia coli) (UniProt P03023); conditions: wild-type inducer responsivity
[2] = molecular target: lac repressor (LacI) wild-type (Escherichia coli) (UniProt P03023); conditions: no inducer; assay method not stated; cited from earlier work
[3] = molecular target: LacI Gln60Gly (Escherichia coli) (UniProt P03023)

lac operator DNA (LacO)
binding signal (fold higher affinity than wild-type) [1]: 10

lac operator O1 (LacO)
Kd [2]: 0.012 nM | Kd ([3]; 1 mM IPTG, described as wild-type affinity under these conditions): > 100000 pM | Kd ([3]; no inducer, assay method not stated, refers to Falcon and Matthews 1999, cited from earlier work): 4 pM
